Publication doi:10.1101/544353
Several values for one entry are separate records, joined by “and”; a condition that tells them apart may be missing. Identical values can stand only once. Like-named read-outs stand apart in the source and are kept apart here.

Experiments:
[1] = target: Photosystem I (PSI) of Gloeocapsa sp. PCC 7428 (Gloeocapsa sp. PCC 7428 (endogenous)); assay: native gel or EMSA
[2] = target: Photosystem I (PSI) of Gloeocapsa sp. PCC 7428 (Gloeocapsa sp. PCC 7428 (endogenous)); assay: native gel or EMSA; remark: listed apart in the source
[3] = target: Photosystem I (PSI) of Chroococcidiopsis sp. PCC 6712 (Chroococcidiopsis sp. PCC 6712 (endogenous)); assay: transmission electron microscopy with single particle analysis
[4] = target: Photosystem I (PSI) of Chroococcidiopsis sp. PCC 6712 (Chroococcidiopsis sp. PCC 6712 (endogenous)); assay: native gel or EMSA
[5] = target: Photosystem I (PSI) of Chroococcidiopsis thermalis PCC 7203 (Chroococcidiopsis thermalis PCC 7203 (endogenous)); assay: native gel or EMSA
[6] = target: Photosystem I (PSI) of Chroococcidiopsis sp. PCC 7434 (Chroococcidiopsis sp. PCC 7434 (endogenous)); assay: native gel or EMSA
[7] = target: Photosystem I (PSI) of Microcystis sp. PCC 7806 (Microcystis sp. PCC 7806 (endogenous)); assay: native gel or EMSA
[8] = target: Photosystem I (PSI) of Fischerella muscicola PCC 7414 (Fischerella muscicola PCC 7414 (endogenous)); assay: transmission electron microscopy with single particle analysis
[9] = target: Photosystem I (PSI) of Fischerella muscicola PCC 7414 (Fischerella muscicola PCC 7414 (endogenous)); assay: native gel or EMSA
[10] = target: Photosystem I (PSI) of Fischerella muscicola PCC 7414 (Fischerella muscicola PCC 7414 (endogenous)); assay: native gel or EMSA; remark: listed apart in the source
[11] = target: Photosystem I (PSI) of Chroococcidiopsis sp. TS-821 (Chroococcidiopsis sp. TS-821 (endogenous)); assay: sucrose density gradient ultracentrifugation
[12] = target: Photosystem I (PSI) of Chroococcidiopsis sp. TS-821 (Chroococcidiopsis sp. TS-821 (endogenous)); assay: native gel or EMSA
[13] = target: Photosystem I (PSI) of Chroococcidiopsis sp. TS-821 (Chroococcidiopsis sp. TS-821 (endogenous)); assay: native gel or EMSA; remark: listed apart in the source
[14] = target: Photosystem I (PSI) of Nostoc sp. PCC 7120 (Nostoc sp. PCC 7120 (endogenous)); assay: native gel or EMSA
[15] = target: Photosystem I (PSI) of Leptolyngbya sp. PCC 7124 (Leptolyngbya sp. PCC 7124 (endogenous)); assay: native gel or EMSA
[16] = target: Photosystem I (PSI) of Synechocystis sp. PCC 6803, wild type (Synechocystis sp. PCC 6803 (endogenous)) (UniProt P37277); assay: native gel or EMSA
[17] = target: Photosystem I (PSI) of Nostoc sp. PCC 9335 (Nostoc sp. PCC 9335 (endogenous)); assay: native gel or EMSA
[18] = target: Photosystem I (PSI) of Pseudanabaena sp. B SP48 (Pseudanabaena sp. B SP48 (endogenous)); assay: native gel or EMSA
[19] = target: Photosystem I (PSI) of Nodularia PCC 73104 (Nodularia PCC 73104 (endogenous)); assay: native gel or EMSA
[20] = target: Photosystem I (PSI) of Planktothrix paucivesiculata PCC 8926 (Planktothrix paucivesiculata PCC 8926 (endogenous)); assay: native gel or EMSA
[21] = target: Photosystem I (PSI) of Thermosynechococcus elongatus BP-1 (Thermosynechococcus elongatus BP-1 (endogenous)); assay: native gel or EMSA
[22] = target: Photosystem I (PSI) of Synechocystis sp. PCC 7509 (Synechocystis sp. PCC 7509 (endogenous)); assay: native gel or EMSA

**Q.** What does the source list for “Photosystem I (PSI) of Gloeocapsa sp. PCC 7428 (complex)”?
**A.** stoichiometry N [1]: 4 and 2; stoichiometry N [2]: 3

**Q.** Which stoichiometry N [3] does the source give for “Photosystem I (PSI) of Chroococcidiopsis sp. PCC 6712 (complex)” here?
**A.** The stoichiometry N was 3.

**Q.** What about the stoichiometry N [4] of the same substance?
**A.** Its stoichiometry N is 3.

**Q.** With “Photosystem I (PSI) of Chroococcidiopsis thermalis PCC 7203 (complex)” as the substance, how does the stoichiometry N [5] read?
**A.** Its stoichiometry N is 2.

**Q.** For “Photosystem I (PSI) of Chroococcidiopsis sp. PCC 7434 (complex)”, which stoichiometry N [6] is on record?
**A.** The stoichiometry N was 2.

**Q.** Which stoichiometry N [7] does the source give for “Photosystem I (PSI) of Microcystis sp. PCC 7806 (complex)” here?
**A.** The stoichiometry N was 2 and 3.

**Q.** Which results are given for “Photosystem I (PSI) of Fischerella muscicola PCC 7414 (complex)”?
**A.** stoichiometry N [8]: 4; stoichiometry N [9]: 4; stoichiometry N [10]: 3

**Q.** “Photosystem I (PSI) of Chroococcidiopsis sp. TS-821 (complex)” was tested. Which stoichiometry N [11] did it give?
**A.** Its stoichiometry N is 2.

**Q.** And the stoichiometry N [12]?
**A.** The stoichiometry N was 4 and 2.

**Q.** What about the stoichiometry N [13] of the same substance?
**A.** The stoichiometry N was 3.

**Q.** How did the stoichiometry N [14] turn out when “Photosystem I (PSI) of Nostoc sp. PCC 7120 (complex)” was run?
**A.** The stoichiometry N was 4.

**Q.** With “Photosystem I (PSI) of Leptolyngbya sp. PCC 7124 (complex)” as the substance, how does the stoichiometry N [15] read?
**A.** The stoichiometry N was 2.

**Q.** With “Photosystem I (PSI) of Synechocystis sp. PCC 6803, wild type (from UniProt P37277 1-157) (complex)” as the substance, how does the stoichiometry N [16] read?
**A.** Its stoichiometry N is 3.

**Q.** For “Photosystem I (PSI) of Nostoc sp. PCC 9335 (complex)”, which stoichiometry N [17] is on record?
**A.** Its stoichiometry N is 3 and 2.

**Q.** “Photosystem I (PSI) of Pseudanabaena sp. B SP48 (complex)” was tested. Which stoichiometry N [18] did it give?
**A.** The stoichiometry N was 3.

**Q.** With “Photosystem I (PSI) of Nodularia PCC 73104 (complex)” as the substance, how does the stoichiometry N [19] read?
**A.** The stoichiometry N was 4.

**Q.** How did the stoichiometry N [20] turn out when “Photosystem I (PSI) of Planktothrix paucivesiculata PCC 8926 (complex)” was run?
**A.** The stoichiometry N was 3.

**Q.** For “Photosystem I (PSI) of Thermosynechococcus elongatus BP-1 (complex)”, which stoichiometry N [21] is on record?
**A.** The stoichiometry N was 3.

**Q.** How did the stoichiometry N [22] turn out when “Photosystem I (PSI) of Synechocystis sp. PCC 7509 (complex)” was run?
**A.** The stoichiometry N was 4 and 2.
